From article PMC6464389 (Circulation, 2019) come the findings set out here.

This test has as its target recombinant GPIbα extracellular domain (UniProt P07359 17-531). Kind of test: SPR.

B1: recombinant wild-type protein disulfide isomerase (wtPDI) (enzyme)
chain: not shown
On to B1, for which the equilibrium dissociation constant (Kd) – broadly, the concentration at which binding is half-saturated – stood at 900 nM.
